In US6756357 (ISTITUTO DI RICHERCHE DI BIOLOGIA MOLECOLARE DI ANGELETTI S …, dated 2004):
Residue numbers refer to the chain shown, from its start. Numbers in names are those of the source.

T1: CNTFRα-myc (soluble extracellular domain of the CNTFRα receptor) (UniProt P26992 23-342)
T1 construct: extracellular domain; Captured on plates or protein A-Sepharose through the anti-myc antibody 9E10; also called CNTF receptor α; soluble CNTFRα receptor
T1 sequence (looked up): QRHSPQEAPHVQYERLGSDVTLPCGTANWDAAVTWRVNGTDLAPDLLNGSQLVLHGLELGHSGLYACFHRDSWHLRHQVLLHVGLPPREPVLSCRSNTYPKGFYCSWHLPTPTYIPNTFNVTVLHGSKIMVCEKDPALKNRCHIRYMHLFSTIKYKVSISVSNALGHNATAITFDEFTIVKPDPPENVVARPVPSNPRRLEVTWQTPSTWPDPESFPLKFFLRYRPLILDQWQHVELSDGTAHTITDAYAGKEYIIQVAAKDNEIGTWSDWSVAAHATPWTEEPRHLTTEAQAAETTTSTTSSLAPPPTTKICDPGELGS

T2: membrane-bound CNTFRα receptor on IMR-32 cells (human, UniProt P26992 23-342)
T2 sequence (looked up): T1 sequence (looked up)

T3: cellular LIF receptor on HepG2 cells (human, UniProt P42702 45-1097)
T3 sequence (looked up): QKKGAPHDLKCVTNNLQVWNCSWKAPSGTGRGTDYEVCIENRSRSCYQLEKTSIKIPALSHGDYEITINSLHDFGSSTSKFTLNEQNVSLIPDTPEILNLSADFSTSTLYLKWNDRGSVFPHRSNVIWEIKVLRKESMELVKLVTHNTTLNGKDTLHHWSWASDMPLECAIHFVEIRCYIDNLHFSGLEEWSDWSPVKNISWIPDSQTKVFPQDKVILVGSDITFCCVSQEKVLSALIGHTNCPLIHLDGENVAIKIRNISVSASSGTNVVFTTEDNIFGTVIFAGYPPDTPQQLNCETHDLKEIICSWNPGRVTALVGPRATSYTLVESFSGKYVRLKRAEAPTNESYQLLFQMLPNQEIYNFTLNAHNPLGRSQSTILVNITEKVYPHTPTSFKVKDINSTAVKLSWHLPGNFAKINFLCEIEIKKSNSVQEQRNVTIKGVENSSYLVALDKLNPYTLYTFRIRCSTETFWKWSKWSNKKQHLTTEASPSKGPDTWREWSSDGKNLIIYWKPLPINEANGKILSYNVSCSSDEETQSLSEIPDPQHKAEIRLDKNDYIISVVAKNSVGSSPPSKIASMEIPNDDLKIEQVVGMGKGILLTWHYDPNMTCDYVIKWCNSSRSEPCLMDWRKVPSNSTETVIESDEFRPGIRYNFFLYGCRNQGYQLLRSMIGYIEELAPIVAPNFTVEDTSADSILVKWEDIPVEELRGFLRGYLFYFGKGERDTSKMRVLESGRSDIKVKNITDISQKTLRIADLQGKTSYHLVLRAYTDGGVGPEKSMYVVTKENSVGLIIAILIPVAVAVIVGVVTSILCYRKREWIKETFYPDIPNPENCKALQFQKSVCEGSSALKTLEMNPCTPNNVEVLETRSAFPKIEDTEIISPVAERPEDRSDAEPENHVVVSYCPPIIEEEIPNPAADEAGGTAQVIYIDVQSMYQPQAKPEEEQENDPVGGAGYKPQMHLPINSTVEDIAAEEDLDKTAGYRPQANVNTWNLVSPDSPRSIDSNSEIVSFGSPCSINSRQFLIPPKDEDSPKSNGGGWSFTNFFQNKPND

T4: soluble LIFR (LIF receptor) (UniProt P42702 45-833, limits assumed, 35S-labelled in the test of FIG. 1B)
T4 construct: also called LIFR marked with 35S
T4 sequence (looked up): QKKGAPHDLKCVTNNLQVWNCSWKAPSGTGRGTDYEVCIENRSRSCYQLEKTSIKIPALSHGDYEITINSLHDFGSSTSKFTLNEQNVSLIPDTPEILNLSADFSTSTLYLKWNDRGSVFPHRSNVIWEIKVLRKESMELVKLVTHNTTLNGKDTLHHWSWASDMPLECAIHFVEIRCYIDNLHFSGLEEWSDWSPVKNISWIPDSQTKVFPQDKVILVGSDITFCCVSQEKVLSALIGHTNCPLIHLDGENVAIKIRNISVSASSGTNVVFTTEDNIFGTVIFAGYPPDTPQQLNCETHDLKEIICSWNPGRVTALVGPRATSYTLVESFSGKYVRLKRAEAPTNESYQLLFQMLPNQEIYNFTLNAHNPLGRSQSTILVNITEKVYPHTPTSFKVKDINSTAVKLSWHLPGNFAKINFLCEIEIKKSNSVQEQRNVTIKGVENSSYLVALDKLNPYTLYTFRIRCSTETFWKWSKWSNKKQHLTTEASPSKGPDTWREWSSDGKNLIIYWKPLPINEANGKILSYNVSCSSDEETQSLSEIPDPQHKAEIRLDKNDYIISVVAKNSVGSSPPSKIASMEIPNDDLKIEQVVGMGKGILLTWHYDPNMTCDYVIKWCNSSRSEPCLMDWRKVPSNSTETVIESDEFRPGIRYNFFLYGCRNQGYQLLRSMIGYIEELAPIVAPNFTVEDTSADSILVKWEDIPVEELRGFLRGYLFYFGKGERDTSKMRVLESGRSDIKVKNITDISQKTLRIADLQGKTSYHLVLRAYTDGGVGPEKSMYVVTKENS

B1: Lys155Ala/MUT-DH (ligand, human, UniProt P26441 1-200, looked up)
chain: MAFTEHSPLTPHRRDLCSRSIWLARKIRSDLTALTESYVKHQGLNKNINLDSADGMPVASTDQWSELTEAERLQENLQAYRTFHVLLARLLEDQQVHFTPTEGDFHQAIHTLLLQVAAFAYQIEELMILLEYKIPRNEADGMPINVGDGGLFEKALWGLKVLQELDHWTVRSIHDLRFISSHQTGIPARGSHYIANNKKM
notes: also called FADH-CNTF; FA/DH
B2: Phe152Ala/Lys155Ala/MUT-DH (ligand, human, UniProt P26441 1-200, looked up)
chain: B1 chain with F152A
notes: also called AADH-CNTF; AA/DH
B3: Phe152Ala/MUT-DH (ligand, human, UniProt P26441 1-200, looked up)
chain: B1 chain with F152A, A155K
notes: also called AKDH-CNTF; AK/DH
B4: human ciliary neurotrophic factor (hCNTF) (ligand, UniProt P26441 1-200, looked up)
chain: B1 chain with A155K, D166S, H167Q
notes: also called wild-type CNTF; wt
B5: MUT-DH (Ser166Asp/Gln167His/CNTF) (ligand, human, UniProt P26441 1-200, looked up)
chain: B1 chain with A155K
notes: also called DH-CNTF; S166D/Q167H/CNTF
B6: Lys155Ala/CNTF (ligand, human, UniProt P26441 1-200, looked up)
chain: B1 chain with D166S, H167Q
notes: also called FA-CNTF
B7: Phe152Ala/Lys155Ala/hCNTF (ligand, human, UniProt P26441 1-200, looked up)
chain: B1 chain with F152A, D166S, H167Q
notes: also called Phe152Ala/Lys155Ala/CNTF; AA-CNTF

biological target: T1, CNTFRα-myc (soluble extracellular …); test: solid-phase competition with biotinylated CNTF or biotinylated MUT-DH for immobilised CNTFRα-myc, soluble gp130 present
Method: The ability of CNTF variants to compete with biotinylated CNTF ([…]) for binding to the extracellular domain of the CNTFRα receptor was determined in a solid-phase binding assay, in the presence of soluble gp130, as described in preceding publications (19). "Microtiter" 96-well polystyrene culture plates were covered with […] of 50 mM sodium carbonate pH 9.5, containing […] of the monoclonal antibody 9E10, which is directed against a c-myc epitope, and the plates are then preserved at 4° C. for one night. The wells were then washed out five times with TBS (50 mM Tris-HCl, pH 7.5, 150 mM NaCl) containing 0.05% Tween and held for 90 minutes at room temperature in TBSMT (50 mM Tris-HCl, 150 mM NaCl, 5% (w/v) lyophilised non-fat milk). All subsequent incubations were carried out at room temperature on a mixer at a speed of 700 rpm, after each incubation period the wells were washed with TBS containing 0.05% Tween (five times each time). The following incubation periods were performed: (1) 2 hours with […] TBSMT containing […] of CNTFRα-myc; (2) 1 hour with […] of TBSMT containing 200 ng of gp130-flag, 5 nM biotinylated CNTF, and the various competitors and (3) 45 minutes with […] of TBS, 5% (w/v) of bovine serum albumin, 0.05% (v/v) Tween 20 containing 0.8 mg/ml avidin conjugated with alkaline phosphatase.
The alkaline phosphatase activity was determined at 37° C. using 1 mg/ml p-nitrophenyl phosphate in 1 M of diethanolamine-HCl, pH 9.8, and absorbancy at 405 nm was measured after 40–60 minutes using a suitable reader. In some experiments the biotinylated MUT-DH variant molecule (0.5 nM) as used as a ligand.

| Relative Binding ((IC50 of CNTF)/(IC50 of tested protein)) [ratio] | Binder |
| --- | --- |
| 42 | B1 |
| 51 | B2 |
| 32 | B3 |
| 1 | B4 |
| 41 | B5 |
| 1 | B6 |
| 0.9 | B7 |

biological target: T2, membrane-bound CNTFRα receptor on …; test: cell-based or functional assay

| inhibition of Chat activity induced by a subsaturating dose of CNTF in IMR-32 cells (FIG. 4B) | Binder |
| --- | --- |
| 70 fold excess over CNTF for 50% inhibition | B2 |

biological target: T3, cellular LIF receptor on HepG2 cells; test: cell-based or functional assay

| haptoglobin secretion by HepG2 cells, without soluble CNTFRα (FIG. 2A) | Binder |
| --- | --- |
| ~20 % with respect to the maximum value | B1 |
| ~20 % with respect to the maximum value | B3 |
| ~20 % with respect to the maximum value | B6 |

biological target: T4, soluble LIFR (LIF receptor); test: immunoprecipitation of 35S-LIFR with immobilised soluble CNTFRα and variant, SDS-PAGE (FIG. 1B)
Method: It is known from the literature that the molecules gp130 and LIFR are able to bind independently to the CNTF/CNTFRα complex (11). To assess the functional importance of D1 motif residues the ability of CNTF variants to assemble receptor complexes with the different subunits was assayed. Bonding of the cytokine/CNTFRα complex to gp130 or LIFR marked with ^35S was determined using immunoprecipitation tests as described in the literature (11). The soluble CNTFRα receptor was immobilised on A-Sepharose protein using the monoclonal antibody 9E10 anti-myc and incubated with soluble gp130 or LIFR marked with sulphur ^35S, in the absence or in the presence of different amounts of CNTF variants (1 or 0.1 mg). After washing, the bound material was eluted and subjected to SDS-PAGE.

| binding result | Binder |
| --- | --- |
| no binding (tested: 1 or 0.1 mg) | B1 |
| no binding (tested: 1 or 0.1 mg) | B2 |
| no binding (tested: 1 or 0.1 mg) | B3 |
